According to publication PMC8387031, “Structures of Substrate Complexes of Foamy Viral Protease-Reverse Transcriptase”:

Assays:
[1] = molecular target: MFV PR-RT ΔRH (deletion variant of MFV PR-RT that lacked the RH domain) (marmoset foamy virus (MFV)); assay: crystal structure; MFV PR-RT ΔRH at 5 mg/ml with 13-bp dsDNA with a 2-nt 5' overhang (substrate 2) at a 1:1 molar ratio; hanging drop; 0.1 M DL-malic acid pH 7.0, 10% PEG 3350; space group C 2
MFV PR-RT full-length [2] = molecular target: T1, MFV PR-RT full-length (marmoset foamy virus, UniProt D5JWV1 1-751); assay: GF/MALS; 2:1 protein:NA; 0.5 mM EDTA; single peak 123.3 kDa, one protein per hybrid; GF/MALS: 20 mM HEPES pH 7.0, 250 mM NaCl, 5% glycerol, 0.5 mM EDTA, 1 mM DTT; cryo-EM: 150 mM NaCl, 20 mM HEPES pH 7.0, 1 mM DTT; crystals: N1 Morpheus MES-imidazole pH 6.5, 18 C; N2 0.1 M DL-malic acid pH 7.0, 10% PEG 3350; settings: protein: recombinant; tags: 6xHis-SUMO (pET28 vector); 28 bp, 5' overhang 6 nt on RNA
MFV PR-RT full-length [3] = molecular target: T1, MFV PR-RT full-length; assay: cryo-EM (4.8 A); asymmetric dimer; EMD-12698; GF/MALS: 20 mM HEPES pH 7.0, 250 mM NaCl, 5% glycerol, 0.5 mM EDTA, 1 mM DTT; cryo-EM: 150 mM NaCl, 20 mM HEPES pH 7.0, 1 mM DTT; crystals: N1 Morpheus MES-imidazole pH 6.5, 18 C; N2 0.1 M DL-malic acid pH 7.0, 10% PEG 3350; settings: protein: recombinant; tags: 6xHis-SUMO (pET28 vector); 22 bp, 5' overhang 2 nt on template
MFV PR-RT full-length [4] = molecular target: T1, MFV PR-RT full-length; assay: X-ray crystallography; monomer; 1:1 mix; GF/MALS: 20 mM HEPES pH 7.0, 250 mM NaCl, 5% glycerol, 0.5 mM EDTA, 1 mM DTT; cryo-EM: 150 mM NaCl, 20 mM HEPES pH 7.0, 1 mM DTT; crystals: N1 Morpheus MES-imidazole pH 6.5, 18 C; N2 0.1 M DL-malic acid pH 7.0, 10% PEG 3350; settings: protein: recombinant; tags: 6xHis-SUMO (pET28 vector); 15 bp; RNA 5' overhang 2 nt and 3' overhang 1 nt; recessed DNA 3' end
MFV PR-RT ΔRH = MFV PR-RT ΔRH (marmoset foamy virus, UniProt D5JWV1 1-588); assay: X-ray crystallography; asymmetric homodimer; 1:1 mix; GF/MALS: 20 mM HEPES pH 7.0, 250 mM NaCl, 5% glycerol, 0.5 mM EDTA, 1 mM DTT; cryo-EM: 150 mM NaCl, 20 mM HEPES pH 7.0, 1 mM DTT; crystals: N1 Morpheus MES-imidazole pH 6.5, 18 C; N2 0.1 M DL-malic acid pH 7.0, 10% PEG 3350; settings: protein: recombinant; tags: 6xHis-SUMO (pET28 vector); chain copies: 2; 13 bp, 5' overhang 2 nt on template

## MFV PR-RT ΔRH (deletion variant of MFV PR-RT that lacked the RH domain) (domain or fragment)
[1]
  stoichiometry N: 2

B1: GF/MALS RNA/DNA hybrid (DNA:RNA)
RNA: GUGAGCGAACAGAGUGCGACACCUGAUUCCAUGA
DNA: TCATGGAATCAGGTGTCGCACTCTGTTC
MFV PR-RT full-length [2]
  binding result: binds

B2: substrate 3 dsDNA (dsDNA)
DNA 1: AACAGAGTGCGACACCTGATTCCA
DNA 2: TGGAATCAGGTGTCGCACTCTG
MFV PR-RT full-length [3]
  binding result: binds

B3: substrate 1 PPT RNA/DNA hybrid (DNA:RNA)
RNA: UUCUUGUCCAGGAGAGGG
DNA: CCTCTCCTGGACAAG
MFV PR-RT full-length [4]
  binding result: binds

B4: substrate 2 dsDNA (dsDNA)
DNA 1: AACAGAGTGCGACAC
DNA 2: GTGTCGCACTCTG
MFV PR-RT ΔRH
  binding result: binds
